Laboratory results from patent publication US6913917B2, “Anti-cocaine catalytic antibody” (priority 1996, dated 2005).
Entries after “also recorded” stand apart in the source; their conditions may differ.

Columns and labels:
Mab 15A10 = assay: Inhibition of Mab 15A10 cocaine hydrolysis; type: biochemical, Mouse; settings: for Ki: read-out: inhibition constant (K1 / Ki) for Mab 15A10; for inhibition of Mab 15A10: at 1 mM
[1] = system: conscious, unrestrained animals; settings: continuously infused cocaine 1 mg/kg/min, i.v. catecholamine infusion; previous work (19); cited from earlier work
[2] = inhalation of vaporized cocaine; cited from earlier work
catalytic mAb = assay: Inhibition of the activity of the catalytic mAbs; type: biochemical, mouse
[3] = system: cocaine esterase activity present in serum; assay: Inhibition of cocaine esterase activity present in serum; type: biochemical; settings: 150 μM
[4] = ELISA with TSA 1, 2, and 3 bound to ovalbumin; type: binding
Text: The rationale for varying the tether sites of TSA to carrier protein (BSA) was to expose unique epitopes and elect catalytic antibodies specific to each immunogen. In order to assess binding specificity, the catalytic antibodies were examined by ELISA with TSA 1, 2, and 3 bound to ovalbumin.

[5] = Hydrolysis of 3H-cocaine by Mab's (kinetic measurements); settings: for Km: Michaelis constant, pH that optimized kcat/ko: in general pH 7.8, 6A12 pH 7.4, 2A10 pH 7.0; for krat: catalytic rate constant (turnover rate), same pH as Km; for kcat/ko: rate acceleration over spontaneous rate (kcat/kuncat)
[6] = Elisa analysis of single chain Fv fragment; type: binding; settings: scFv of Mab 3B9
LD90 cocaine = assay: Survival after LD90 cocaine infusion; type: in vivo, rat; settings: for survival to LD90 cocaine infusion: cocaine 16 mg/kg at 1 mg/kg/min
[7] = Plasma concentrations at death by HPLC; type: in vivo, rat; settings: compared to saline or Mab 1C1 control groups, antibody 100 mg/kg
[8] = system: cocaine-induced convulsions or death; settings: antibody 100 mg/kg
[9] = system: toxicity due to intraperitoneal cocaine; settings: intraperitoneal administration, mouse; cited from earlier work
[10] = cocaine 1 mg/kg/min until death

Molecule | binding specificity by ELISA [4] | Km [5] [µM] | krat [5] [min⁻¹] | kcat/ko [5] | other results
O=C(O)c1ccccc1 [benzoic acid] | – | – | – | – | Kd (Mab 15A10; read-out: Kd, inhibition of Mab 15A10 in vitro): ~250 µM; Ki (Mab 15A10): 250 µM
CN1[C@H]2CC[C@@H]1[C@@H](C(=O)O)[C@@H](OC(=O)c1ccccc1)C2 [benzoyl ecgonine] | – | – | – | – | inhibition of Mab 15A10 (Mab 15A10): no inhibition
COC(=O)[C@H]1[C@@H](OC(=O)c2ccccc2)C[C@@H]2CC[C@H]1N2C [cocaine] | – | – | – | – | LD50 [1]: 10 mg/kg; LD90 [1]: 16 mg/kg; peak pulmonary vein concentration [2]: 10 to 30 µM
COC(=O)[C@@H]1[C@H]2CC[C@@H](C[C@@H]1O)N2C [ecgonine methyl ester] | – | – | – | – | inhibition of Mab 15A10 (Mab 15A10): not inhibited; also recorded: not observed
CNC(=O)Oc1ccc2c(c1)[C@]1(C)CCN(C)[C@@H]1N2C [eserine, reference compound] | – | – | – | – | inhibition of the activity of any catalytic mAb (catalytic mAb; 1 mM): did not inhibit
COC(=O)C1C(OP(=O)(O)c2ccccc2)CC2CCC1N2C (centres unmarked) [free TSA 4] | – | – | – | – | inhibition of Mab 15A10 catalytic activity (Mab 15A10; free TSA 50 μM, bioreactor-produced Mab 15A10): completely inhibited; Ki (Mab 15A10): 0.23 µM; inhibition of all catalytic antibodies (enzymes) (catalytic mAb; 50 μM): inhibited completely; inhibition of cocaine esterase activity present in serum [3]: did not inhibit
O=C(O)CNC(=O)c1ccccc1 [hippuric acid] | – | – | – | – | inhibition of Mab 15A10 (Mab 15A10): did not inhibit; also recorded: not an inhibitor
Mab 8G4E: anti-cocaine catalytic monoclonal antibody elicited by TSA 3 (antibody, V domains shown, mouse) VH: VQLLESGAELVMPGASVKMSCKASGYTFTDHWMHWVKQRPGQGLEWIGTIDLSDTYTGYNQNFKGRATLTLDESSNTAYMQLSSLTSEDSAVYYCSRRGFDYWGQGTTLTVSS VL: ELVMTQSPLTLSVTIGQPASISCKSSQSLLYSDGKTYLNWFFQRPGQSPKRLIYLVSKLDSGVPDRFTGSGSGKDFTLKISRVEAEDLGLYYCVQGYTFPLTFGAGTKLELKR | bound only TSA-1 and 3 | 1200 | 0.12 | 1100 | –
Mab 8G4G: anti-cocaine catalytic monoclonal antibody elicited by TSA 3 (antibody, mouse) heavy: VQLLESGAELVKPGASVELSCRTSGYTFTTYYIYWVKQRPGQGLEWIGGMNPGNGVTYFNEKFKNRATLTVDRSSSIAYMQLSSLTSEDSAVYYCTRVGNSLLTGAEGLWSLSLQ light: TRAGETVTLTCRSSSGTITANNYGSWVQEKPDHLFTGLIGVSNNRGPGVPARFSGSLIGDKAVLTITGGQTEDEAIYFCALWNSNHFVFGGGTKLTVLGQ | bound only TSA-1 and 3 | 530 | 0.60 | 5500 | –
Mab 9A3: anti-cocaine catalytic monoclonal antibody elicited by TSA 1 (antibody, V domains shown, mouse) VH: SGPELVKPGASVKLSCKASGYPFTDYNMYWVKQSHGKSLEWIGYIDPSNGGIFYNQKFKGRATLTVDKSSNTAFMHLNSLTSEDSAVYYCARGGGLFAYWGQGTLVTVSE VL: TWPGETVTLTCRSSTGTITTSNYANWVQEKPDHLFSGLIGINNNRPPGVPARFSGSLIGDKAVLTITGAQTEDEAIYFCALWYSNHWVFGGGTKLTVLG | bound only TSA-1 and 3 | 270 | 0.015 | 140 | –
single chain Fv fragment: single chain Fv fragment for catalytic monoclonal antibody 3B9, with FLAG and 6×His (protein, FLAG and 6xHis tags; mouse, single chain Fv fragment for catalytic monoclonal antibody 3B9, with FLAG and 6×His) scFv: MEVQLQESGPELVKPSQSLSLTCTVTGNSITSDYAWTWIRQFPGNKLEWMGYIRHIYGTRYNPSLISRISITRDTSKNQFFLQLDSVTAEDTATYYCVRYHYYGSAYWGQGTLVTVSAGMQSGGGGSGGGGSGGAMDIVMTQDELSNPVTSGESVSISCRSSRSLLYRDGKTYLNWFLQRPGRPPQLLIYLMSTRSSGVSDRFSGSGSGTDFTLEISRVKAEDVGVYYCQHFVDYPFTFGSGTKLEIKRADGAPTVSIFFPPSLDYKDDDDKLEHHHHHH | – | – | – | – | binding activity by Elisa [6]: demonstrated binding activity; catalytic activity (release of ^3H-benzoic acid from ^3H-phenyl-cocaine) ([5]; result in words): Enzymatic activity was confirmed
Mab 3B9: anti-cocaine catalytic monoclonal antibody elicited by TSA 1 (antibody, V domains shown, mouse) VH: DVQLQESGPGLVKPSQSLSLTCTVTGNSITSDYAWTWIRQFPGNKLEWMGYIRHIYGTRYNPSLISRISITRDTSKNQFFLQLDSVTAEDTATYYCVRYHYYGSAYWGQGTLVTVSAAKTTP VL: DIVMTQDELSNPVTSGESVSISCRSSRSLLYRDGKTYLNWFLQRPGRSPQLLIYLMSTRSSGVSDRFSGSGSGTDFTLEISRVKAEDVGVYYCQHFVDYPFTFGSGTKLEIKR | bound all three conjugates | 490 | 0.11 | 1100 | –
Mab 2A10: anti-cocaine catalytic monoclonal antibody elicited by TSA 1 (antibody, mouse) heavy: ELVKPSQSLSLTCTVTGYSITSDYAWNWIRQFPGNRLEWMGYIRYSGITRYNPSLKSRISITRDTSKNKFFLQLNSVTTEDTATYYCVRIHYYGYGNWGQGTTLTGLP light: DMVMTQDELSNPVTSGESVSISCRSSKSLLYEDGKTYLNWFLQRPGQSPHLLIYLMSTRASGVSDRFSGSGSGTDFTLEISRVKAEDVGAYYCQQFVEYPFTFGSGTKLEIRR | bound all three conjugates | 3000 | 0.011 | 420 | –
Mab 6A12: anti-cocaine catalytic monoclonal antibody elicited by TSA 1 (antibody, mouse) heavy: DVQLQESGPGLVKPSQSLSLTCTVTGNSITSDYAWTWIRQFPGNKLEWMGYIRHIYGTRYNPSLISRISITRDTSKNQFFLQLDSVTAEDTATYYCVRYHYYGSAYWGQGTLVTVSAAKTTP light: DMVMTQDELSNPVTSGESVSISCRSSRSLLYRDGKTYLNWFLQRPGRSPQLLIYLMSTRASGVSDRFSGSGSGTDFTLEISRVKAEDVGVYYFQHFEDYPFTFGSGTKLEIKR | bound all three conjugates | 1020 | 0.072 | 880 | –
Mab 15A10: mouse monoclonal anti-cocaine catalytic antibody elicited by TSA 1; most active (antibody, V domains shown, mouse) VH: SGPELVKPGASVKVSCKASGYSFTDYNMYWVKQNHGESLEWIAYIDPSNGDTFYNQKFQGKATVTLDKSSSTAFMHLNSLTSEDSAVYYCARGGGLFAFWGQGTLVTVSA VL: AVVTQESALTTSPGETVTLTCRSSTGTITSDNYANWVQEKPDHLFSGLIGVNNYRPPGVPARFSGSLTGDKAVLTITGAQTEDEAIYFCALWYSNHWVFGGGTKLTVLG | bound only TSA-1 and 3 | 220 | 2.3 | 2.3×10^4 | mean cocaine dose at death (LD90 cocaine; antibody 5 mg/kg): 8.2 ± 1.0 mg/kg; cocaine dose at death of the single non-survivor (LD90 cocaine; antibody 15 mg/kg): 15.9 mg/kg; survival to LD90 cocaine infusion (LD90 cocaine; antibody 15 mg/kg i.v.): Four of five; survival to LD90 cocaine infusion (LD90 cocaine; antibody 50 mg/kg i.v.): all of five; effect on survival / protection from cocaine toxicity (LD90 cocaine; result in words, p<0.001): dose-dependent increase in survival; also recorded: significant; increase in plasma ecgonine methyl ester [7]: > 10 fold; kcat (activity) remaining after repetitive turnover ([5]; after 6 hrs and >200 turnovers, of baseline): > 95%; potency relative to the first catalytic antibodies ([5]; at sub-saturating concentrations of cocaine): 100 fold; kcat/ko ([5]; listed as 15A10): 23000; increase of mean lethal dose of cocaine over controls [8]: over 3 fold; dose of cocaine at seizure (average) [8, 10]: 32.5 mg/kg; mean lethal dose of cocaine [8, 10]: 37.0 mg/kg
butyrylcholinesterase: the enzyme butyrylcholinesterase; plasma enzyme that deactivates cocaine (protein, UniProt P06276 29-602, looked up) Cholinesterase: EDDIIIATKNGKVRGMNLTVFGGTVTAFLGIPYAQPPLGRLRFKKPQSLTKWSDIWNATKYANSCCQNIDQSFPGFHGSEMWNPNTDLSEDCLYLNVWIPAPKPKNATVLIWIYGGGFQTGTSSLHVYDGKFLARVERVIVVSMNYRVGALGFLALPGNPEAPGNMGLFDQQLALQWVQKNIAAFGGNPKSVTLFGESAGAASVSLHLLSPGSHSLFTRAILQSGSFNAPWAVTSLYEARNRTLNLAKLTGCSRENETEIIKCLRNKDPQEILLNEAFVVPYGTPLSVNFGPTVDGDFLTDMPDILLELGQFKKTQILVGVNKDEGTAFLVYGAPGFSKDNNSIITRKEFQEGLKIFFPGVSEFGKESILFHYTDWVDDQRPENYREALGDVVGDYNFICPALEFTKKFSEWGNNAFFYYFEHRSSKLPWPEWMGVMHGYEIEFVFGLPLERRDNYTKAEEILSRSIVKRWANFAKYGNPNETQNNSTSWPVFKSTEQKYLTLNTESTRIMTKLRAQQCRFWTSFFPKVLEMTGNIDEAEWEWKAGFHRWNNYMMDWKNQFNDYTSKKESCVGL | – | – | – | – | effect on toxicity due to intraperitoneal cocaine [9]: inhibit toxicity
